Experimental data from the supplement of paper PMC12636428.

Test system: Saccharomyces cerevisiae
Assay: transcriptional activation domain activity (GFP:mCherry ratio, weighted mean of sorted bins, harmonized to initial dataset scale) (arbitrary fluorescence ratio units); higher = stronger transcriptional activation
Settings: beta-estradiol 1 µM; induction time 4 h
How it was run: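 Activation activity, the read-weighted mean of bin median fluorescence averaged across barcodes, was linearly mapped onto the scale of the initial dataset. It was measured for barcoded protein tiles fused to an estradiol-inducible synthetic transcription factor at URA3 in GFP-reporter yeast diploids. Cultures diluted 1:5 into SC with 1 uM beta-estradiol were held 4 hours at 30 °C, sorted into 8 bins by GFP:mCherry ratio, and barcode-sequenced, and tiles under 50 reads were discarded.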

Row | Sequence | transcriptional activation domain activity
1 | GASTPVTTGGKRKSDGGAGGSAKKERKTPAAKKDKEEKAPRGKANGAKATAAS | 22000
2 | MPSFTLAWPDRAYFYSLLVVSLLSAKFLHLFSHLTALPIFLFLLYFPTFVFLD | 76700
3 | DQVMKIKPVQKQTTAGQRTRFKAVVVVGDSNGHVGLGVKTAKEVATAIRAAII | 72700
4 | FLHLLKIIRPSFAFYFTILFWWCIQVQLLLQIIINRIRVIVPNRKLSRHIMWG | 66300
5 | WWMYLPLLLLLVLMFAPHYSILVLLVSYYLNIHDSPFLFSLHLFVIYLITFLA | 58200
6 | QLFTFLLQTYRMKYLVQRVSPRTIRQINDVRLRHLSYKLRQRLIWFADIMRSY | 58900
7 | CDEHINMKEKEPEKDETPAADGAAKEEEKKPETKPDDTFQAFVVIAVALISMG | 27600
8 | IYIFPINTTIASFALGYLSIFYLIYAILTVLPTFFFDCPYGTPFSALMWRISH | 62300
9 | KVRAKEIVILPSEEDDNYKPLDTSNATTSSSEPRVDVVQEGLFREALNENDGK | 32500
10 | IFAFGYWLEESGKLLRLDLFTRFYAWGRIVLPRVGDAMIFYWENDTFGIRRGF | 69000
11 | SLLEELTMRLLETDESHIKKIKDLSRFVNMIILRLFATGRRMSIFRSLFALLL | 62600
12 | VDLSDLGEAVINQSNHNNDNDNSNNGDGNNNNTISELVCFDESIADLYPVEID | 71500
13 | AALALKFRYRIDGSTEDRWISVSRMLNKIAHWYLPQKYTFLHPSGIVSYAVIR | 66900
14 | EEEDRHRHSRHRSKRSRSRTYSEERHRSRTRDSARRSKTRTKSPDERPPASED | 40900
15 | GDERSRKAGEKETSRGGRGAGGGRRETGRKEKPGGKAGKGGRTRAGGRGREKK | 21800
16 | PAPAPMGRRTFAVDVDESAHSLAKKVKAARVRGYNYIIVVGERDAERGTAAVQ | 44800
17 | MFVVLAMLLVILVVIFIFVIFVLIVLIFVILVMLLMLFFILIVIIAVIVLFFF | 16700
18 | LSHSFFSSCCCLLRTLGRFLLFIIFFLSFYFLPFFFSFQTYLLLYLLLIVYFH | 29700
19 | EGEVTTTSSEEETTTEEETTRTRPTRTTTTEEEQTTTDASSTTTSQDEETTTP | 39200
20 | MRTPSTSPFDFCFFFAFSFLLLCWPVIPFILLFYILKFLWTYPFVFCVLYFIE | 37600
21 | RMMREDYFPVARLFYCAFMLIHPHFEIPRFWQMGMHILHMLASLNYRPAILTM | 68400

Row | Sequence | transcriptional activation domain activity
22 | NSSEEEDRNRRERKRKREKEREKKKESRRHRSRSRRSKEVEDDDEKDRKRHRR | 14500
23 | FGNPPLIWFFWALFSPLFLFFFFFPIFFLSFPFFSFSFLFSFFVLLGVLKAYL | 22100
24 | NFIIQGNSMISTPSGRNDLPDTSPMSSIQTASPPSQLLTDQGFADLDNFMSSL | 74500
25 | GRIMERSGGWLVLVSHFSYFLNWVLVLFLLFFGGYAYVYYLCISSLLFPFTSF | 48800
26 | SSSEDESDEEDEEGLGSDVEIHDQAEPAEDVPAGEVSRRFAVVNLDWDHVRAV | 32200
27 | YYAECCTHTGNAHKVQRKMLNPVFTTKHMKARMWYQFMLLFLKEALMNELKGY | 14300
28 | RGAKEGARGGGENEKNEGDTGRSRAEGTRETESGAGASQQRAAREGTAGTQGR | < 6570
29 | MFFIFFFWFVFFPLTIFLLSSSIFGFLFSSSFLFYYYYFFLWGGRPFIFPFYS | 33300
30 | DTKLIAISDANELKGFDSQCIEEWDPILFSAAEIWPTKGKPIALVEMDPIDFD | 145000
31 | RLNFLLFCLSLFLSLYFFPFCLLFFLFSLSSFLFCLPSFLSLLSSFFFFFVSL | 57200
32 | ISKTIAVLELACDVLHHNPGVFIISVLLLVIFIAFTAIWMVLFNRLWLIGHLN | 56000
33 | LYSIFSLLSIRFFILYSVYVFFFFIGALGGGMLYGLFFFFFFDEVIWYSFFLS | 35400
34 | QDALVELFGHMENFFRRLEKHIEVRPTTAMTDIIVKIMVEVLSILGIVTKEIE | 41200
35 | APKAAAPPPAPVPAPAPVAAPAPAASVELGPDGQPKRRRGRPKGSKNKPKIPP | 35700
36 | MAKTRLIETIHTAFCIEFIYQYLIIGYGNPLVLAQIHWSVVCLLACTLLIVFL | 55500
37 | MYLFFFFFLDWFFFVVIITIICILWIWAWDFWACLLGIGIGFACLFYSGWVLF | 47800
38 | ALPERIKTFHAHGIFLALHCFLLQHGPQPISIWLLLALIKGRRRCLFPSIFFC | 36200
39 | TLHIVLVSYGMYFYLILNFANIAALLSPSWAFLVQVYLTCISDTVVRSVFFSR | 69200
40 | MLRDYWLILIVNCQTIGCKLPIVMWSPLCLFLTLNHGLLWLWMCLALRFFSLF | 35000
41 | PLYPTTRCIFFFYRFLLYVVHLNMSLLMHSFFFVLLQACRGWMSLFLLLSLLF | 47900
42 | AEPSIYSNLFLDARLPNNANSTTGLNDNDYNLDDTNNDNTNSMQSILEDFVSS | 75100

Row | Sequence | transcriptional activation domain activity
43 | QKMQKSGGFVNINVFGFVFIIAVSCVVVTLDITLLKFLIFISEFQRLTHLSAR | 45400
44 | ATDCAVKALRALQILMDHPTFPYDACLDLWHRCWPWMHFVHTFWKYLPGFVTG | 57200
45 | SRRPAKKVKEEGEKKAASGDKKGRGKALSEKSKPDAKGSKAKSKHKKDSDSEE | 24900
46 | GGAAAKESESKSSASTSKASISKGKDEQGAGASGGNKKGGGGKATTKRGRKKG | 29400
47 | MGWGAFWRWLVGCSLVLYVFYPLLSYLRCFILVFRFVYIYLPLTDCFLLFISK | 53300
48 | LPDLQWLVKFLVVAAHETGKNIVCRRAPGNLLSGNLVTLVSNVVLQRSPKRSY | 47900
49 | TLHFFQPIAKWFGIKKSSKLIRFGEQGHAMAYFAVTSCWGLRVMRQLPTWWYR | 41500
50 | HGEERGWIYLVQYRGIAWLLRRLACCRFEILAIFHLSNLNHPVNVLADSYDRE | 19700
51 | GSERRERRSERRRSRDRSGERRRSKREEGSSRRPQSPEDEDRQQRRHRRHRHR | 16500
52 | MPRKAAAATTEIPAEPRRSSRIKEQPKVEPAPKKAPAKPRGKKAKAAEAEAAP | 13000
53 | MFSFYMPTPPPFFPFPLVLFFFFFAVHRFHKISTFSTPFFFWIHFIVVLLFSF | 58600
54 | GAGGGITSNGGGKPAAAAEGAKPASEAPKEASKPEGAKPASESPKPEGEKPAA | 27600
55 | TMHLNVVFISVVVNGFCSEHGFVSMRLWAVYKSLSLVLWMSFFIVLCWVGMIV | 53600
56 | ICNFFYKNILGMGVLFWYQIYCGWSSTYVYNYVYLLFWNVFWTLCPVIAIGLF | 41800
57 | PSIRRCPVSFGDIDMEAELACIQYIREVLLPELVPCAYILLSYILHLLHEVSL | 77000
58 | PAADKSDAPRKPVSISIGGGAKKAEEAKPEPAKAASEGPAPAGGVAAVKAAAA | 39300
59 | AAAVAVAREHVQKEVVATVTVAKEHVQKEEVVAAVAVAREHAQKEVVATVAVA | 56000
60 | AESGGESAGNASGEDFAAPKKKSSRSRIKKALQSLGSGKLSPKNSRTPKASPV | 28400
61 | KPHGKQAAESTRGQSTTGTNSTTSNSSRASGSRRQETDRGKEGKSNKASSSSG | 21900
62 | FAGAFKHFQRLGPVSQWDLLAKLPLIVFWILFTCCSLHFYLLFLFLFFIRWVS | 55200
63 | IIKSLVGCLFFVLCPIVLVHSTSCYPRILYPLSYLLFLFWVPHLLFACRVTFT | 56400

Row | Sequence | transcriptional activation domain activity
64 | FFRRLLLEIGWAHPLLVLCSATLLEPAHSRDHYVSKVFSHLSPEHAHVVGEIA | 47500
65 | KEAKSKSKAAHDNDAKRKTTATKPKRTSARNGKAPVKSKPKKGGGNAEPSAKK | 10300
66 | LLNVHVCVIYFVGWIVSLFQFCQIAIQQPTLDWVHCLPYILRVLLGFDLVYVT | 66100
67 | TVPVLVLVIYDWPRDRSNAYQVVLAISIWCWGVYQLLYIFLCGLYNPNFSTFR | 59700
68 | HHTHHSSSTDWSRAFRKWSVRLLLAIAFPTTYLLGAAMPPKIILMLYPRYSPP | 39100
69 | PAGDNKAPRKEGARANNRPRDNDAPRGPRYDRTPRDGDAASRAPRGARAPRGA | 41700
70 | SPSRRRDRDYDYSRYRRRDDSRSRSPRRRADPKDQQEKEKEKVKVKPSRAAAT | 16200
71 | ALCEDRSQTWHPGTQLDFPQELLDQLNYYLVNLRKYFNNESILFLVYLGCVIF | 59600
72 | IINHLIILYLNRHICVMGLLHVPTFLEYYNSLDDPLNDAMVLAVCIDALVNLR | 42700
73 | KGAPKKSKGEEKEEVVAEETKVEVKVVKETKKVDKAAKAETKKDEVKKVKKVE | 46000
74 | IPGPILLCSLTALSCLTLFTLLVSIYWSVSSVCHLIFLTILWILRCLVTLLRF | 34600
75 | LIIDVFPPPPPLLSLFFFLSLSLFFSSSFLLFSFASLLSVQLWRGLIVLFVFL | 62900
76 | HELFALYNLLYFRKLLLPRVEVIWSPRLTLCAGICELSKDPKTGKFTRIRLKL | 47000
77 | EGKTRESKQKQGRERIGKGKGSREKGERREEEEGKGGKRRAGRKEGEWRSRGS | 32400
78 | TMSTVMVVGSDDKKVKEVGEALKSKLGVKGGGKGSRWSGKFTGVWKDSREGAL | 27000
79 | HGTLCDIYLVIILKCCGDDDNSVSLVEGIALAPSSARSNAFERVGKFGGGPES | 46900
80 | GDVAATDIGSKGGKKDGKRQKGSAAHVDGEDTSEDKKGAAKTGKRKKGGGAKE | 27200
81 | RTILLASYIFSNIFVCLIVLNDSLKILWWLGDSYWHKIWFFRIWLWANSISFL | 74800
82 | MKIVWFSGPKVCTLFIFLLFCFLLSCCSAFLVSFFCWFLSCWLFLLAFGLLFF | 49400
83 | PAVRVLPCNHGPGGDLCIICRTPLFQLTLFKYLMTKMCHVRTWLMFGILDLTF | 47700
